T1: full-length form of the extracellular portion of DLL3 expressed on transduced RPMI-8226 cells (Homo sapiens (Human), UniProt Q9NYJ7 27-492)
T1 construct: also called DLL3-D1-6; DLL3+ RPMI-8226 cells
T1 sequence: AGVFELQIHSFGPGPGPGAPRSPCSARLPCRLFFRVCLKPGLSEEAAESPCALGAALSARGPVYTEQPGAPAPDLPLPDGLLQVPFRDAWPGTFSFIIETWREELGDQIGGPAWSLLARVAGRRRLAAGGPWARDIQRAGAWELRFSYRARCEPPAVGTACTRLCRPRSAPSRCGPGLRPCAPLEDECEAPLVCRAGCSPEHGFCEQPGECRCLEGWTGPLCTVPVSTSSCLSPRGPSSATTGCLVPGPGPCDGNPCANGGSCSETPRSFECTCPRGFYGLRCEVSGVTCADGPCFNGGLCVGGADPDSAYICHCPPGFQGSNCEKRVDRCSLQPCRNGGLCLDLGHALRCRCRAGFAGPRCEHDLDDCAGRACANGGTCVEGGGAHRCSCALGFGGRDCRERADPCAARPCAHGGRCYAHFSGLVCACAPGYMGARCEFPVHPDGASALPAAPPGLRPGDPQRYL

T2: recombinant human DLL3 (ELISA coat) (human, UniProt Q9NYJ7 27-492)
T2 sequence: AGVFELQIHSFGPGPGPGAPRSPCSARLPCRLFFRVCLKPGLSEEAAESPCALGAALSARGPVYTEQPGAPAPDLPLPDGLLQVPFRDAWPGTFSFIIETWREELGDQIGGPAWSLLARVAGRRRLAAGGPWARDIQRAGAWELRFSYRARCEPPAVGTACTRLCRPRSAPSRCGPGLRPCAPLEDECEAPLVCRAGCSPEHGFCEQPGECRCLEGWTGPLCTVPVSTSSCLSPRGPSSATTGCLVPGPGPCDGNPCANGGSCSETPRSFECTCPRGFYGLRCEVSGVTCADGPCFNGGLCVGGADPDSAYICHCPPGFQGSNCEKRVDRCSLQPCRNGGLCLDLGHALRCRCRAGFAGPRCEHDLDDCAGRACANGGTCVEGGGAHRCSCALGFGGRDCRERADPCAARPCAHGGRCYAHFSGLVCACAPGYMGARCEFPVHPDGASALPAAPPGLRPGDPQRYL

T3: recombinant human DLL1 (human, UniProt O00548 18-540, limits assumed)
T3 sequence (looked up): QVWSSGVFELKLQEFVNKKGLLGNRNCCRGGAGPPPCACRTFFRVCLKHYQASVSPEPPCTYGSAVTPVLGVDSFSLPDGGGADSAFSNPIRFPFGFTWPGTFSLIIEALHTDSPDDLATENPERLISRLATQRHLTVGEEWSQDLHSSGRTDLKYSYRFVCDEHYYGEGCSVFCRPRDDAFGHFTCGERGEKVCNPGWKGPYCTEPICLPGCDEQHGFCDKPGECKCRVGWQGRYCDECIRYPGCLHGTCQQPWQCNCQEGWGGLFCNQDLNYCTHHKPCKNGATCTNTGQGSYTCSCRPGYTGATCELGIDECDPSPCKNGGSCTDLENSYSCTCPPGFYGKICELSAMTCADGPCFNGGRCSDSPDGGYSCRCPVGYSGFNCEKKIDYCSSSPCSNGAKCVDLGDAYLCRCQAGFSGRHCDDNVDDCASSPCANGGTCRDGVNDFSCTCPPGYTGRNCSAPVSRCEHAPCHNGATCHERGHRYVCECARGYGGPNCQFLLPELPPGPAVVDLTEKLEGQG


Experiments:
[1] = molecular target: T1, full-length form of the extracellular …; experiment: flow cytometry, RPMI-8226 cells transduced to express full-length extracellular DLL3, fluorophore-conjugated anti-human IgG
Procedure: Anti-DLL3 mAbs were diluted and incubated with DLL3⁺ RPMI-8226 cells. The cells were analyzed by flow cytometry and binding of a mAb was detected using a fluorophore conjugated anti-human IgG secondary antibody.

recombinant human DLL4 = recombinant human DLL4 (human, UniProt Q9NR61 27-524, limits assumed); experiment: ELISA, plate-bound recombinant human DLL4 (0.5 µg/mL), anti-mouse IgG-HRP/TMB, % of positive control max
recombinant human DLL4, sequence (Q9NR61 27-524 limits assumed): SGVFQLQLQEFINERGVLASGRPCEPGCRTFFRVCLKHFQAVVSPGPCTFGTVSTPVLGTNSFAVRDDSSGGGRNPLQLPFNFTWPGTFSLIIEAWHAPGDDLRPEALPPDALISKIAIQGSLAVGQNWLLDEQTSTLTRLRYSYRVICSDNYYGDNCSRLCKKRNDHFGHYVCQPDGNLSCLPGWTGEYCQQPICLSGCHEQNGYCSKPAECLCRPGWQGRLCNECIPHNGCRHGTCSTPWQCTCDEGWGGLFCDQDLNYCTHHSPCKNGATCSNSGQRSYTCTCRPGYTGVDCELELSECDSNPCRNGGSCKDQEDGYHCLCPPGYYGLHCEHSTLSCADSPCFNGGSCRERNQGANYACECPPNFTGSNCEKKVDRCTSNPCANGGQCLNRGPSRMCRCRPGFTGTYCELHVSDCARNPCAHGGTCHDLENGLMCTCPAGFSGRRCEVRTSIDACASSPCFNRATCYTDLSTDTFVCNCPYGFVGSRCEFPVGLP
Procedure: (§1) To investigate the binding of anti-DLL3 antibodies to human DLL3, wells of high binding flat-bottom plates were coated with recombinant human DLL3 diluted to 0.5 μg/ml. To assess cross-reactivity of the antibodies to DLL1/DLL4, which are closely related family members to DLL3, plates were coated with recombinant human DLL1 diluted to 1 μg/ml, or human DLL4 diluted to 0.5 μg/ml. […] Binding was detected using anti-mouse IgG-HRP and 3,3′,5,5′-Tetramethylbenzidine (TMB) substrate. Signals were normalized to the corresponding positive control antibody.

[2] = molecular target: T2, recombinant human DLL3 (ELISA coat); experiment: ELISA, plate coated with recombinant human DLL3 0.5 µg/ml, anti-mouse IgG-HRP
Procedure: as §1
Table 38 lists the calculated EC₅₀ based on the binding data from FIG. 24.

recombinant human DLL1 = molecular target: T3, recombinant human DLL1; experiment: ELISA, plate-bound recombinant human DLL1 (1 µg/mL), anti-mouse IgG-HRP/TMB, % of positive control max
Procedure: as §1

Row | EC50 (read off the curve) [1] [nM] | binding result (recombinant human DLL4) | EC50 [2] [nM] | binding result (recombinant human DLL1) | Binder
1 | ~3 | – | – | – | chimeric protein of murine 5E7 variable regions and human IgG1/Igκ constant regions (antibody, V domains shown, VH cloned onto human IgG1 CH1-CH2-CH3, VL onto human constant kappa) VH: EVQLQQSGAELVRPGASVKLSCTASGFNIKDDYIHWVKQWPEQGLEWIGWIDSENGDTEYASKFQGKATMTADTSSNTAYLQLSGLTSEDTAVYYCTTSSYYSYDLFVYWGQGTLVTVSA VL: DVLMTQTPLTLSVPIGQPASISCKSSQSLLHSNGKTYLNWLLQRPGQSPKLLIYLVSKLESGVPDRFSGSGSGTDFTLKISRVEAEDLGVYYCLQTTHLYTFGGGTKLEIK
2 | – | no binding | 0.06 | no binding | anti-DLL3 antibody clone 2H6 (antibody, V domains shown, Murine antibody from a mouse hybridoma) VH: QIQLVQSGPELKKPGETVKISCKASGYTFTTYGVNWVKQAPGKGLKWMGWINTYSGVPTYADDFKGRFAFSLETIATTAYLQINNLKNEDTATYFCARFGNYGFDYWGQGTTLTVSS VL: DIVMTQSPSSLSVSAGEKVTMSCKSSQSLVNSGNQKNYLAWYQQKPGQPPKLLISGASTRESGVPDRFTGSGSGTDFTLTISSVQAEDLAVYYCQNDHNYPYTFGGGTKLEIK
